Data from paper PMC4673825, “Active site coupling in Plasmodium falciparum GMP synthetase is triggered by domain rotation” (Nature Communications, 2015).
Positions count from the first letter of the chain named.

Tests used:
N = experiment: purified protein; settings: 2 mM ATP, 150 μM XMP, 20 mM MgCl2, pH 8.5, 25 °C
[1] = test system: O=c1[nH]c(=O)c2ncn([C@@H]3O[C@H](COP(=O)(O)O)[C@@H](O)[C@H]3O)c2[nH]1; experiment: purified protein; type: biochemical, Plasmodium falciparum; settings: 2 mM ATP, 5 mM Gln, 20 mM MgCl2, pH 8.5, 25 °C, Gln-dependent
PfATPPase = molecular target: T1, PfATPPase (Plasmodium falciparum, UniProt Q8IJR9); experiment: ammonia-dependent GMP formation, absorbance decrease at […] nm; settings: NH4Cl-dependent, 20 mM MgCl2, pH 8.5, 25 °C
T1 construct: gene GMPS
T1 sequence (Q8IJR9 237-555): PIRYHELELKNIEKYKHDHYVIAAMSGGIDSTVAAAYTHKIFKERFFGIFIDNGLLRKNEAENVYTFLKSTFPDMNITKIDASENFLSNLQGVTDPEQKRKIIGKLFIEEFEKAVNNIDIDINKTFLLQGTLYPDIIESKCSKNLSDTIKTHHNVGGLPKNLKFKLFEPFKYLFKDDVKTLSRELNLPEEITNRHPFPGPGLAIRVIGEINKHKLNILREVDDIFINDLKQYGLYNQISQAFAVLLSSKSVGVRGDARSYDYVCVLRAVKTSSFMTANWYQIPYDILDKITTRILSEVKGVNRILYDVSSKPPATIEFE

purified protein [2] = substrate: N; experiment: purified protein; settings: 20 mM MgCl2, pH 8.5, 25 °C
purified protein [3] = substrate: O=c1[nH]c(=O)c2ncn([C@@H]3O[C@H](COP(=O)(O)O)[C@@H](O)[C@H]3O)c2[nH]1; experiment: purified protein; settings: NH4Cl-dependent, 20 mM MgCl2, pH 8.5, 25 °C
[4] = molecular target: the molecule itself; experiment: SEC; analytical gel filtration, Superdex 200 HR 10/30, 50 mM Tris-HCl pH 7.4, 100 mM KCl; 100 μl of 20 μM protein, each injected individually
[5] = molecular target: the molecule itself; experiment: SAXS; in solution, 1.1-11 mg/ml in 20 mM Tris pH 7.4, 50 mM NaCl; data at 11 mg/ml analysed; ab initio envelope superimposed on the dimer crystal structure
SAXS = molecular target: the molecule itself; experiment: SAXS

PfGMPS (Plasmodium falciparum 3D7)
Km (N): 19000 ± 1000 µM
kcat (N): 0.917 s⁻¹
kcat/Km (N): 48.3 M⁻¹ s⁻¹
Km [1]: 10 ± 2 µM
kcat [1]: 0.733 ± 0.0167 s⁻¹
kcat/Km [1]: 73300 M⁻¹ s⁻¹

Nc1ncnc2c1ncn2[C@@H]1O[C@H](COP(=O)(O)OP(=O)(O)OP(=O)(O)O)[C@@H](O)[C@H]1O [ATP]
Km (PfATPPase): 56 ± 16 µM

B1: PfATPPase (isolated ATP pyrophosphatase domain of PfGMPS) (domain or fragment, Plasmodium falciparum, UniProt Q8IJR9 237-555, looked up)
chain: T1 sequence (Q8IJR9 237-555)
notes: ATPPase domain of Plasmodium falciparum GMP synthetase, residues 237-555; Cloned into pET-21b(+); also called ATPPase domain; source: E. coli BL21(DE3) (pETPfATPPase), purified (60% ammonium sulfate precipitation, CM-Sepharose cation exchange)
Km (purified protein [2]): 7000 ± 300 µM
kcat (purified protein [2]): 0.155 ± 0.0017 s⁻¹
Km (purified protein [3]): 11 ± 4 µM
stoichiometry N [4]: 2

B2: Plasmodium falciparum GMP synthetase (PfGMPS), wild type (enzyme, UniProt Q8IJR9 1-555, looked up)
chain: MEGEEYDKILVLNFGSQYFHLIVKRLNNIKIFSETKDYGVELKDIKDMNIKGVILSGGPYSVTEAGSPHLKKEVFEYFLEKKIPIFGICYGMQEIAVQMNGEVKKSKTSEYGCTDVNILRNDNINNITYCRNFGDSSSAMDLYSNYKLMNETCCLFENIKSDITTVWMNHNDEVTKIPENFYLVSSSENCLICSIYNKEYNIYGVQYHPEVYESLDGELMFYNFAYNICKCKKQFDPIRYHELELKNIEKYKHDHYVIAAMSGGIDSTVAAAYTHKIFKERFFGIFIDNGLLRKNEAENVYTFLKSTFPDMNITKIDASENFLSNLQGVTDPEQKRKIIGKLFIEEFEKAVNNIDIDINKTFLLQGTLYPDIIESKCSKNLSDTIKTHHNVGGLPKNLKFKLFEPFKYLFKDDVKTLSRELNLPEEITNRHPFPGPGLAIRVIGEINKHKLNILREVDDIFINDLKQYGLYNQISQAFAVLLSSKSVGVRGDARSYDYVCVLRAVKTSSFMTANWYQIPYDILDKITTRILSEVKGVNRILYDVSSKPPATIEFE
notes: GMP synthetase of Plasmodium falciparum, EC 6.3.5.2, full-length enzyme of 555 residues: GATase domain 1-236 and ATPPase domain 237-555; also called guanosine 5'-monophosphate synthetase; ligand-free PfGMPS; source: E. coli AT2465 (pQE30PfGMPS), purified (HisTrap, Superdex 200 size exclusion)
stoichiometry N [5]: 2

B3: PfGMPS_C89A (glutamine-bound inactive mutant of P. falciparum GMP synthetase) (enzyme)
chain: B2 chain with C89A
stoichiometry N (SAXS): 2
